Laboratory results taken from paper PMC5577389.

Biological target: 6xHis-FN1, the first fibronectin type III repeat (FN1) of the neural cell adhesion molecule NCAM
Assay: ITC

Kd: 10.9 µM | dH: 0.991 kcal/mol | stoichiometry N: 1.06
Substance: 6xHis-SUMO-PBR, ST8Sia-IV polybasic region peptide (residues 75-100) fused to an N-terminal 6xHis-SUMO tag (from UniProt Q92187 75-100)
